Key:
[1] = molecular target: recombinant human ICAM-1/CD54 (R&D Systems) (human) (UniProt P05362)
[2] = molecular target: human rhinovirus strain RV89 (major group RV-A), purified virus (human rhinovirus) (UniProt P07210); test: fluid phase competition ELISA: RV89 (25 µg/ml) pre-incubated with 50 µg/ml soluble ICAM-1, then added to plate-bound ICAM-1
[3] = molecular target: human rhinovirus strain RV2 (minor group RV-A), purified virus (human rhinovirus) (UniProt P04936); test: fluid phase competition ELISA: RV2 (5 µg/ml as printed here) pre-incubated with 50 µg/ml soluble LDLR, then added to plate-bound LDLR
[4] = molecular target: biotinylated RV89 (human rhinovirus) (UniProt P07210)
biotinylated RV89 (human rhinovirus), sequence (P07210 2-866): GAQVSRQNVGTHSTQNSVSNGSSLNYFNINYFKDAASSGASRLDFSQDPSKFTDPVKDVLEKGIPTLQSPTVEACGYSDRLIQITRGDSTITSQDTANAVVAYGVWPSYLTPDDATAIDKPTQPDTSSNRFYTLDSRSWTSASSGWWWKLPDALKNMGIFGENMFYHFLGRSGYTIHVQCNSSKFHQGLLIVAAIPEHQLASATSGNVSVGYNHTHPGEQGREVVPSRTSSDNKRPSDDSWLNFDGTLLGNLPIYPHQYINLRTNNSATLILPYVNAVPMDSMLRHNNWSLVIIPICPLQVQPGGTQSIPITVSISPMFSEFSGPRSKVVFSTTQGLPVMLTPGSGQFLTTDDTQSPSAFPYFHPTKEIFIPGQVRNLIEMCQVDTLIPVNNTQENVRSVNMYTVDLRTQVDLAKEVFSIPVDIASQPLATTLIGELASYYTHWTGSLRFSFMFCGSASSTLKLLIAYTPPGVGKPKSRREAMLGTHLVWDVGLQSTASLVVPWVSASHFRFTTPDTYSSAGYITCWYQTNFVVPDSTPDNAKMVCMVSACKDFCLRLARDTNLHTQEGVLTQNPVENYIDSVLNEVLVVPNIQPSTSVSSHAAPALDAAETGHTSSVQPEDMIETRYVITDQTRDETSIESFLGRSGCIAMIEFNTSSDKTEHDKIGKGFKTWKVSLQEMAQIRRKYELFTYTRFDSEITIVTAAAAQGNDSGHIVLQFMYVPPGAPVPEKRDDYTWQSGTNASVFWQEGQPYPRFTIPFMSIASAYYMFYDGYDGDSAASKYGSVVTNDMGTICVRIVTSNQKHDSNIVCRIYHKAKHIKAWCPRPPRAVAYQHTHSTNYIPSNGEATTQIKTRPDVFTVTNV

recombinant human ICAM-1/CD54 (R&D Systems) (human), sequence (P05362 28-480 limits assumed): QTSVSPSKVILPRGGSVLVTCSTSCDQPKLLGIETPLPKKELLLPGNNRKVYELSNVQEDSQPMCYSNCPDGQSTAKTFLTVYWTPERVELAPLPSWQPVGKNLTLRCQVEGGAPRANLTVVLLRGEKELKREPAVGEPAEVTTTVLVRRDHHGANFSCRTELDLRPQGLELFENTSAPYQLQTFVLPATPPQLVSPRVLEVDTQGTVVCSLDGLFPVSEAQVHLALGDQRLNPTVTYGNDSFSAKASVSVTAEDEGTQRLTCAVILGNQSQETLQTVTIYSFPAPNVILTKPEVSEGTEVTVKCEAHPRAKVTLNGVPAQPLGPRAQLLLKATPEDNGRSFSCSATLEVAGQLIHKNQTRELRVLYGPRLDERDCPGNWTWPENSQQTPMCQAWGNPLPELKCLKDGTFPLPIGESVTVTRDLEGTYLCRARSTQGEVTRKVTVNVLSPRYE
recombinant human ICAM-1/CD54 (R&D Systems), sequence (P05362 28-480 limits assumed): as above
human rhinovirus strain RV89 (major group RV-A), purified virus (human rhinovirus), sequence (P07210 2-866): as the sequence (P07210 2-866) above
human rhinovirus strain RV2 (minor group RV-A), purified virus (human rhinovirus), sequence (P04936 2-850): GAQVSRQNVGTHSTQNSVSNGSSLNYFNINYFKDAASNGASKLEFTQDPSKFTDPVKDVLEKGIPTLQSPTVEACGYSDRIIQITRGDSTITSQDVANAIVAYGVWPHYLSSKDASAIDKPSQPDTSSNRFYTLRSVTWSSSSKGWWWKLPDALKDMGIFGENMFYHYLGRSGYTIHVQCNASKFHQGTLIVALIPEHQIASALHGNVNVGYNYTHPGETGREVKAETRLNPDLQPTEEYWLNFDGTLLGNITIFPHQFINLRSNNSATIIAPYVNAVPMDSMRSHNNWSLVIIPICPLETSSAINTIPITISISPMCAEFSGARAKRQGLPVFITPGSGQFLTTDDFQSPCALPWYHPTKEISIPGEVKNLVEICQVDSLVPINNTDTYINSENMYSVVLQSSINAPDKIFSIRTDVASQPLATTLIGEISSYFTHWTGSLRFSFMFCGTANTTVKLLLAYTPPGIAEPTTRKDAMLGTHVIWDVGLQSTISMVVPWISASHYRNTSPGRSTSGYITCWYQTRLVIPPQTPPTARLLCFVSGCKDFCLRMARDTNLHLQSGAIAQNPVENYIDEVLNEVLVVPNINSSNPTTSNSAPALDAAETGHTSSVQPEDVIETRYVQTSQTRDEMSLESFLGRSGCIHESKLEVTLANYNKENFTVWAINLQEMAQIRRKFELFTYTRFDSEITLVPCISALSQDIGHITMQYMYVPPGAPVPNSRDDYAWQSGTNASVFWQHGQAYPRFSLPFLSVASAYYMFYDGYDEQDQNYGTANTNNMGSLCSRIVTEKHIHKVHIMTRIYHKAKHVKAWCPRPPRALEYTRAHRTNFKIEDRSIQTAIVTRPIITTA

biotinylated RV89 (from UniProt P07210 2-866)
lowest virus concentration at which binding to ICAM-1 was detected [1]: 6.25 µg/mL

human rhinovirus strain RV89 (major group RV-A), purified virus (from UniProt P07210 2-866)
lowest virus concentration at which binding to ICAM-1 was detected [1]: 6.25 µg/mL

recombinant human ICAM-1/CD54 (R&D Systems) (from UniProt P05362 28-480) (receptor)
percent inhibition of RV89 binding to plate-bound ICAM-1 [2]: > 95%

recombinant human LDLR (R&D Systems) (from UniProt P01130 22-788) (receptor)
percent inhibition of RV2 binding to plate-bound LDLR [3]: > 60%

ultrasensitive Streptavidin-Peroxidase Polymer (Merck) (from UniProt P22629 37-163)
lowest coated concentration of biotinylated RV89 that was detected [4]: 0.625 µg/mL

From patent publication EP3926342A1
